Measurements taken from patent US20090196913A1, “Anti-Alpha-V Immunoliposome Composition, Methods, and Uses” (priority 2007, published 2009).

Assays:
A375.S2 cells = test: Binding and internalization at 37° C., confocal microscopy; format: cell-based, human; conditions: 37° C. for 10 min, washed, 1 hour at 37° C.
Experimental: These targeted-liposomes were used in the cytotoxicity assay using the various cells lines, as described below. A375.S2 cells were harvested by scraping and then resuspended to obtain individualized cells and rejuvenated for 1 hour, at 37° C. About 1 million cells of each tumor type were counted and distributed into individual centrifugation tubes. The tubes were spun to obtain a cell pellet. […] Cells were treated with the liposome formulations containing either a doxorubicin payload or a fluorescent marker (Dextran Alexa Fluor 488). Treatment was terminated by adding 1 mL of washing media (serum free), vortexing briefly, and centrifuging to recover a cell pellet The cells in the pellet were resuspend in washing media, vigorously shaken for 10 minutes at 37° C. and then centrifuged again (440 rpm). The cell pellet was left in 100 μL of media, an aliquot of 8 μL was taken and placed on a glass slide for observation under a confocal microscope.

integrin αvβ3 [1] = target: T1, integrin αvβ3 (Homo sapiens, UniProt P06756); test: scFv binding ELISA on integrin-coated plates; conditions: detected by HRP anti-His Ab and anti-CNTO95 Ab (c508)
T1 construct: purchased Chemicon International Inc
T1 sequence (P06756 31-889 limits assumed): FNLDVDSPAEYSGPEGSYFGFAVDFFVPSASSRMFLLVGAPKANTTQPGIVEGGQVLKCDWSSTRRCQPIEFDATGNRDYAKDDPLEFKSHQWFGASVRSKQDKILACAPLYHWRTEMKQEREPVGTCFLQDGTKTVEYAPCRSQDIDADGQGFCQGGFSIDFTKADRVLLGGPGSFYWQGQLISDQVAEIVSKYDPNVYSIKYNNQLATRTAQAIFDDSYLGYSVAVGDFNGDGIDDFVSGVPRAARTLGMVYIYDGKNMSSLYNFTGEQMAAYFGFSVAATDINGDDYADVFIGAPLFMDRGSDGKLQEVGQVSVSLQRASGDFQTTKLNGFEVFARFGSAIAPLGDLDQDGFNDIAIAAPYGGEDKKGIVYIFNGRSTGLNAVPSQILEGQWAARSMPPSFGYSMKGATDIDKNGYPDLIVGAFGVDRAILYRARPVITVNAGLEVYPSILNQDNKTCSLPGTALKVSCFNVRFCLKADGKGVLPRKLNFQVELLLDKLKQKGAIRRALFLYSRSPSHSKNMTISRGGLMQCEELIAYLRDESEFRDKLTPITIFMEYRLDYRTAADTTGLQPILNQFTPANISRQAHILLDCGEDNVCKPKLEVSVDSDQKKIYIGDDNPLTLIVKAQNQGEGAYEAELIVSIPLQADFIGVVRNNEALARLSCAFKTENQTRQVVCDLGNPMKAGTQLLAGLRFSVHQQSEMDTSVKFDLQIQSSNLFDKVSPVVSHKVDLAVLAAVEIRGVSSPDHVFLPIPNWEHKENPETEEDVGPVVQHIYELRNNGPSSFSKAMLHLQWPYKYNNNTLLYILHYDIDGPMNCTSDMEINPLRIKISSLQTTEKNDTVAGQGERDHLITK
T1 sequence (P06756 891-1048 partner limits assumed): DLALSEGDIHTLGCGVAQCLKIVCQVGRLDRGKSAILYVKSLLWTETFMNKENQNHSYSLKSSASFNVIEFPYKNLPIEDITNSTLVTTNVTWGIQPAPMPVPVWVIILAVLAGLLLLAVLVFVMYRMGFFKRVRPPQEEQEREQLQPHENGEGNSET
T1 sequence (P05106 27-788 partner): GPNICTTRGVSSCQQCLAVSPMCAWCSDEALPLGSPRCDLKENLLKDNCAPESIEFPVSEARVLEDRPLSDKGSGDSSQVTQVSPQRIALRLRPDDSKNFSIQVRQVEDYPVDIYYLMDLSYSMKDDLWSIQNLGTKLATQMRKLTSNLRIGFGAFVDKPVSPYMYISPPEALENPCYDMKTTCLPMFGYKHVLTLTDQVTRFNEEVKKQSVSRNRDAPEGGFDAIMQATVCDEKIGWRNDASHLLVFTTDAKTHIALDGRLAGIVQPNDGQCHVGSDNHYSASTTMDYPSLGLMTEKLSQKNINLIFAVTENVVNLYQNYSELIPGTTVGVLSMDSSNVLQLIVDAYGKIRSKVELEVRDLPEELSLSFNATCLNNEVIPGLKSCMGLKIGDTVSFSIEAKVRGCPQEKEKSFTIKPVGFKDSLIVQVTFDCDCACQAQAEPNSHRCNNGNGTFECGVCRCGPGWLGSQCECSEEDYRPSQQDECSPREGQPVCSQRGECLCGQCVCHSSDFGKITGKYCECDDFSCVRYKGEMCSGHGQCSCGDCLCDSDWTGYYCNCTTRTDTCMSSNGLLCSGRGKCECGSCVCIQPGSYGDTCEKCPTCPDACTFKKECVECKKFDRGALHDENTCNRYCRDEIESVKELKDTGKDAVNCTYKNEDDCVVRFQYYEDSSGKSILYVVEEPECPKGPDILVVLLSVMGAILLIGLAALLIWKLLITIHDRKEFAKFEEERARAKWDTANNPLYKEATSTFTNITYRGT
Experimental: (§1) The binding affinity of scFv CNTO95 was measured using a validated sandwich enzyme-linked immunoassay. The 96-well plates (Coasta, high binding plate) were coated with 100 ul of integrin αvβ3 or αvβ5 (Chemicon International Inc ) at 1 ug/ml in coating buffer (0.75 g Na2CO3 and 1.45 g NaHCO3 in 500 ml H2O) and incubated overnight at 4° C. The plates were blocked with Superblock blocking buffer in PBS (Pierce) at room temperature for 1 hr. Wells were washed with PBS+0.05% Tween 20 between each step. Controls and scFv purified protein were diluted serially at 3-fold with TBST, and added to the coated wells in duplicate, and incubated at 37° C. for 2 hrs. Two methods were used to detect the binding. For anti-his ELISA 1:1000 diluted HRP mouse anti-his antibody were added to each well and incubated for 1 hr. For the anti-CNTO95 anti-idiotype ELISA, an aliquot of 1:1000 diluted 1 mg/ml C508 antibody was added to each well and incubated for 1 hr. […]
(§2) The Elisa was developed using OPD tablet (Sigma) in development buffer for 15 min at room temperature. […] The binding affinity was measured in a plate reader at 490 nm. In the assay, purified CNTO95 scFv protein from E. coli bound both αvβ3 and αvβ5 integrin proteins (FIG. 14) as shown for integrin-coated ELISA plates and was detected by HRP anti-His Ab as well as the anti-CNTO95 Ab (c508).

integrin αvβ5 [2] = target: T2, integrin αvβ5 (Homo sapiens, UniProt P06756); test: scFv binding ELISA on integrin-coated plates; conditions: detected by HRP anti-His Ab and anti-CNTO95 Ab (c508)
T2 construct: purchased Chemicon International Inc
T2 sequence (P06756 31-889 limits assumed): as the sequence (P06756 31-889 limits assumed) above
T2 sequence (P06756 891-1048 partner limits assumed): as the sequence (P06756 891-1048 partner limits assumed) above
T2 sequence (P18084 24-799 partner): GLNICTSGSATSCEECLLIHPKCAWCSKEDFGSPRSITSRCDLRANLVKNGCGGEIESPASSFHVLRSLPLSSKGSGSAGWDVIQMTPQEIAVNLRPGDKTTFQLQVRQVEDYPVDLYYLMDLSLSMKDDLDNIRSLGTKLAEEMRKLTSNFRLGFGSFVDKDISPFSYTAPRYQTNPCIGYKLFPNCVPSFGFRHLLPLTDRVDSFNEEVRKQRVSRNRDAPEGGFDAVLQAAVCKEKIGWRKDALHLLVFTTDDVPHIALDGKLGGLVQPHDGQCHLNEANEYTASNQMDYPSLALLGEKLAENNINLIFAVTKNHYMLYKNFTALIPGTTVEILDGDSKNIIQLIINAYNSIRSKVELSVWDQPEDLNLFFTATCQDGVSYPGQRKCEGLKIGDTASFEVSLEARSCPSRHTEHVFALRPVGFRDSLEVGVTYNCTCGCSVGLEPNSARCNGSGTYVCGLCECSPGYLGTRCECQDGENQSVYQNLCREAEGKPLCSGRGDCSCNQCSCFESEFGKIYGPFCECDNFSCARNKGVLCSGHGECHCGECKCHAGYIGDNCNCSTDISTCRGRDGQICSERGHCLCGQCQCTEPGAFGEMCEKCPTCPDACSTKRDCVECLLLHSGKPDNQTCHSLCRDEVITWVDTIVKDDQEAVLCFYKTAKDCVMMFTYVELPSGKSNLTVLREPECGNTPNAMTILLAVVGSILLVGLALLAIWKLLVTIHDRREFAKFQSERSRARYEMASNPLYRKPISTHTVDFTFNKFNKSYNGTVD
Experimental: as §1, §2

integrin αvβ3 [3] = target: T1, integrin αvβ3; test: scFv vs Mab integrin competition assay; format: binding; conditions: αvβ3 coated plate, CNTO95 mAb at 0.8 nM
Experimental: (§3) To compare the binding affinity of scFv CNTO95 and CNTO 95 mAb, the 96-well plates were coated with 100 ul of integrin αvβ3 or αvβ5 as described above. CNTO95 mAb was added to each well at 0.8 nM for αvβ3 coated plate or 0.2 nM for αvβ5 coated plate. Controls and scFv purified protein diluted serially at 3-fold with TBST were added to the coated wells in duplicate. The mix of CNTO95 mAb and sFv were incubated at 37° C. for 2 hrs. The detection antibody was 1:10K dilution of peroxidase conjugated affinipure F(ab′)2 fragment Goat anti-human IgG, Fc fragment specific (minimal cross reaction to Bovine, Horse and mouse serum protein) (Jackson Immunoresearch ). The antibody was incubated on the plate 1 hr at 37° C. and the color was developed and read as above. CNTO95 mAb binding to both alpha-V-integrins was competed with the […] (FIGS. 15A and B).

integrin αvβ5 [4] = target: T2, integrin αvβ5; test: scFv vs Mab integrin competition assay; format: binding; conditions: αvβ5 coated plate, CNTO95 mAb at 0.2 nM
Experimental: as §3

Compound	binding and internalization (confocal microscopy) (A375.S2 cells)	binding to integrin-coated ELISA plates (integrin αvβ3 [1])	binding to integrin-coated ELISA plates (integrin αvβ5 [2])	competition with CNTO95 mAb for integrin binding (integrin αvβ3 [3])	competition with CNTO95 mAb for integrin binding (integrin αvβ5 [4])
COc1cccc2c1C(=O)c1c(O)c3c(c(O)c1C2=O)C[C@@](O)(C(=O)CO)C[C@@H]3O[C@H]1C[C@H](N)[C@H](O)[C@H](C)O1 [free dox, doxorubicin]	drug internalization is evident	–	–	–	–
CNTO95 scFv: single chain variable fragment of CNTO 95, VH-(Gly4Ser)3-VL, R18L, 6×His tag and Gly4Cys (SEQ ID NO: 4)	–	bound	bound	effectively competes	effectively competes
